Values quoted from earlier work in patent US5925739A, “Pharmaceutical formulation for subcutaneous intramuscular or intradermal administration of factor VIII” (Pharmacia & Upjohn AB, priority 1994, dated 1999).

Conditions: hemophilia B patients, injected into subcutaneous tissue

human factor IX: coagulation factor IX, molecular mass of about 56 kDa
transport into the circulation: poorly and very slowly transported into the circulation
